This is an account of results in paper PMC5837747.

In this assay the target is HA-14-3-3β (UniProt P31946). The experiment in a line: GFP co-immunoprecipitation, HA blot, densitometry.

Consider “mouse CdGAP (mCdGAP, GFP-CdGAP) (from UniProt A6X8Z5) S1093A/S1163A”, for which the “binding against the reference” value (reference: wild type (unstimulated and PMA-treated cells), sites S1093,S1163) is “weaker”.

Regarding “mouse CdGAP (mCdGAP, GFP-CdGAP) (from UniProt A6X8Z5) S1093A/S1163A double mutant”, the “binding against the reference” value (reference: S1093A single mutant, sites S1163) is “weaker” and the “binding against the reference” value (reference: S1163A single mutant, sites S1093) is listed as “weaker”.
